Results on four molecules are retold here after patent publication US20210284734A1 (SYMPHOGEN A S, published 2021).

To fix the notation:
T1: His-tagged cynomolgus PD-1 ECD (cynomolgus (Macaca fascicularis), UniProt Q15116 25-170 (human entry))
T1 construct: bought from Acro Biosystems; not shown: His tag
T1 chain: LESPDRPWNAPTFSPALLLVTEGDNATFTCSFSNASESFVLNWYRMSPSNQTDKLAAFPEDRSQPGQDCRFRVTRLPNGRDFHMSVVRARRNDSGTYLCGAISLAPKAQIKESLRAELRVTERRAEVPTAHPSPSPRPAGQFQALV

T2: His-tagged mouse PD-1 ECD (mouse (Mus musculus), UniProt Q02242 25-169)
T2 construct: bought from Sino Biologicals; not shown: His tag
T2 sequence: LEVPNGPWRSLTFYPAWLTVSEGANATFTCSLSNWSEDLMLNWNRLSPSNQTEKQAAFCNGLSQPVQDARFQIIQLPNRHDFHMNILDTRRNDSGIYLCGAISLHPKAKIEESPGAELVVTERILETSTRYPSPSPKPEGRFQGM

B1: cyno PD1 (receptor)
receptor: LESPDRPWNAPTFSPALLLVTEGDNATFTCSFSNASESFVLNWYRMSPSNQTDKLAAFPEDRSQPGQDCRFRVTRLPNGRDFHMSVVRARRNDSGTYLCGAISLAPKAQIKESLRAELRVTERRAEVPTAHPSPSPRPAGQFQALVVGVVGGLLGSLVLLVWVLAVICSRAAQGTIEARRTGQPLKEDPSAVPVFSVDYGELDFQWREKTPEPPAPCVPEQTEYATIVFPSGLGTSSPARRGSADGPRSPRPLRPEDGHCSWPL
notes: also called cynomolgus PD-1 expressed on CFSE-stained CHO-S cells
B2: 12819.15384 (antibody, human IgG1, lambda, L234A L235A)
heavy: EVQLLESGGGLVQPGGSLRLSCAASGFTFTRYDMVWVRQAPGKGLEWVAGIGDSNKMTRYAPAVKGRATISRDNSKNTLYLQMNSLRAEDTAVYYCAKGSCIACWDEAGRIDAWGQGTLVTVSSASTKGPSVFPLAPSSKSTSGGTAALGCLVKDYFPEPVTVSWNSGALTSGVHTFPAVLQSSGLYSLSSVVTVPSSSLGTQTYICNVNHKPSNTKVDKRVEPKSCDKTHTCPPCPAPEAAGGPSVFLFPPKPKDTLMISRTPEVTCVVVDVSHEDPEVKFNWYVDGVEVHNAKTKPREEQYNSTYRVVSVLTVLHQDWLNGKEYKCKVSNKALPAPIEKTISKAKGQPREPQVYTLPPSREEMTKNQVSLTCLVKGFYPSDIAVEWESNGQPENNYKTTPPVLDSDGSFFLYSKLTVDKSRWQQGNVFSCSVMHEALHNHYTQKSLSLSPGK
light: SYELTQDPAVSVALGQTVRITCSGGGSYDGSSYYGWYQQKPGQAPVTVIYNNNNRPSDIPDRFSGSSSGNTASLTITGAQAEDEADYYCGSYDRPETNSDYVGMFGSGTKVTVLGQPKANPTVTLFPPSSEELQANKATLVCLISDFYPGAVTVAWKADGSPVKAGVETTKPSKQSNNKYAASSYLSLTPEQWKSHRSYSCQVTHEGSTVEKTVAPTECS
notes: humanized, IgG1 LALA, lambda
B3: 12865.17150 (antibody, human IgG1, lambda, L234A L235A, V domains shown)
VH: EVQLLESGGGLVQPGGSLRLSCAASGFDFSDHGMQWVRQAPGKGLEYVGVIDTTGRYTYYAPAVKGRATISRDNSKNTLYLQMNSLRAEDTAVYYCAKTTCVGGYLCNTVGSIDAWGQGTLVTVSS
VL: SYELTQDPAVSVALGQTVRITCSGGGSSSYYGWYQQKPGQAPVTVIYDDTNRPSGIPDRFSGSSSGNTASLTITGAQAEDEADYYCGGYEGSSHAGIFGSGTKVTVLG
B4: 12777.13362 (antibody, human IgG1, lambda, L234A L235A)
heavy: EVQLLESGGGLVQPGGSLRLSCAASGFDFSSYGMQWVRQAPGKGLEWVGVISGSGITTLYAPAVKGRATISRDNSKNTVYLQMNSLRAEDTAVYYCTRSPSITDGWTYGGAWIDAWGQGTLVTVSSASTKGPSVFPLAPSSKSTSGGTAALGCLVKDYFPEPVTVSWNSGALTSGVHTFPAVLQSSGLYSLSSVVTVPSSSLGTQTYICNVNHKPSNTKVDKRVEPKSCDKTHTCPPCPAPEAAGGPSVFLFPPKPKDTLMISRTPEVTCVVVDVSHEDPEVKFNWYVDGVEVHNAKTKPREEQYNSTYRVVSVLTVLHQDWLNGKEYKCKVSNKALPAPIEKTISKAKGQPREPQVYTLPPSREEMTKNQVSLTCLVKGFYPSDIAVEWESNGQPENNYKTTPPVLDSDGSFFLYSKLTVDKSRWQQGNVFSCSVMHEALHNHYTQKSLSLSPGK
light: ELTQDPAVSVALGQTVRITCSGGDGSYGWFQQKPGQAPVTVIYDNDNRPSDIPDRFSGSSSGNTASLTITGAQAEDEADYYCGNADLSGGIFGSGTKVTVLGQPKANPTVTLFPPSSEELQANKATLVCLISDFYPGAVTVAWKADGSPVKAGVETTKPSKQSNNKYAASSYLSLTPEQWKSHRSYSCQVTHEGSTVEKTVAPTECS
notes: same as 12777.15382 but without the N-terminal SY of the light chain

The target of assay [1] is T3, R-PE labeled human PD-L1-Fc chimera protein (human, UniProt Q9NZQ7 19-239, conjugated to R-phycoerythrin (R-PE)).
T3 construct: bought from R&D Systems; not shown: Fc of the commercial chimera
T3 sequence (Q9NZQ7 19-239, change not shown): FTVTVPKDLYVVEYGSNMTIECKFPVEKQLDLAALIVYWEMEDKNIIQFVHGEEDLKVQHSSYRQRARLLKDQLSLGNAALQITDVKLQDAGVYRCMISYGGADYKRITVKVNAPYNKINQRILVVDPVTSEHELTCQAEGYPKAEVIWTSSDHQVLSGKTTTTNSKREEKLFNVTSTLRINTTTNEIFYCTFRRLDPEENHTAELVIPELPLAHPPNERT
Description: flow cytometry, PD-1-transfected CHO-S cells; R-PE PD-L1-Fc 16.4 nM in the presence of the negative control ramucirumab 10 ug/ml. (In general: In flow cytometry, cells or beads pass a laser one at a time.)

In assay [2] the target is T1, His-tagged cynomolgus PD-1 ECD. Description: SPR, IgG captured, monovalent PD-1 ECD analyte. (In general: Surface plasmon resonance follows binding to a sensor surface in real time, without labels.)
Assay [3] addresses T4, His-tagged human PD-1 ECD (human, UniProt Q15116 25-170).
T4 construct: bought from Acro Biosystems; not shown: His tag
Description: SPR, IgG captured, monovalent PD-1 ECD analyte.

For assay [4], the target named is T2, His-tagged mouse PD-1 ECD. As to the kind of experiment: SPR, IgG captured, monovalent PD-1 ECD analyte.
Assay [5] has as its target T4, His-tagged human PD-1 ECD. As to the kind of experiment: SPR, IgG captured, monovalent PD-1 ECD analyte. This is another data set of the same source.
The target of assay [6] is T2, His-tagged mouse PD-1 ECD. As to the kind of experiment: SPR, IgG captured, monovalent PD-1 ECD analyte. The source holds these as a separate data set.
In assay [7] the target is T5, human PD-1 expressed on CHO-S cells (human, UniProt Q15116 25-288).
T5 construct: also called PD-1-expressing cells
T5 sequence (Q15116 25-288 limits assumed): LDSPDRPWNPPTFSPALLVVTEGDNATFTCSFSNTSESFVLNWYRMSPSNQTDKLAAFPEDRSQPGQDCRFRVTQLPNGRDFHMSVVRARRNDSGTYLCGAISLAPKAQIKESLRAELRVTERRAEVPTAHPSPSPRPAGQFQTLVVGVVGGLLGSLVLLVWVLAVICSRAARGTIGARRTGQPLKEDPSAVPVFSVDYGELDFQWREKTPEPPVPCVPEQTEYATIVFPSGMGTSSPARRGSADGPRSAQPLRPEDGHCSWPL
Description: flow cytometry, PD-1-transfected CHO-S cells; mAb 10 ug/ml, then R-PE PD-L1-Fc as blocked ligand.

In assay [8] the target is B1. Described as above.
For assay [9], the target named is T6, human PD-1 Fc fusion protein (Sino Biological) (human, UniProt Q15116 25-167, limits assumed).
T6 construct: bought; not shown: Fc of the commercial fusion protein
T6 sequence (Q15116 25-167 limits assumed): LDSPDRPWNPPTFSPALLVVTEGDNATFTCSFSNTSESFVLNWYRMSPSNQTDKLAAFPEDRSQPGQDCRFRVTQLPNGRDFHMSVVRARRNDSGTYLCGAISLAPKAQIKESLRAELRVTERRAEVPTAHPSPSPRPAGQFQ
Description: BLI, PD-1-Fc saturated with 10 ug/ml antibody, then PD-L2-Fc. In general terms: Biolayer interferometry detects binding as a change in optical thickness at a sensor tip.

The target of assay [10] is T5, human PD-1 expressed on CHO-S cells. As to the kind of experiment: flow cytometry competition, 10 ug/ml antibody vs R-PE PD-L1-Fc on PD-1 CHO-S cells.
In assay [11] the target is T6, human PD-1 Fc fusion protein (Sino …). As to the kind of experiment: BLI, PD-1-Fc saturated with 10 ug/ml antibody, then PD-L1-Fc.

Read-outs that look alike come from different tables or passages of the source.
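Throughout, for % of all cells in Q1 of panel PD-L1 binding (PD-L1+, CFSE- human PD1 cells): human PD-1 CHO-S cells mixed with CFSE-labelled cyno PD-1 CHO-S cells, antibody binding read with APC anti-human IgG light chain detection.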
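Throughout, for % of all cells in Q4 of panel PD-L1 binding (PD-L1-, CFSE- human PD1 cells): human PD-1 CHO-S cells mixed with CFSE-labelled cyno PD-1 CHO-S cells, antibody binding read with APC anti-human IgG light chain detection.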
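Throughout, for % of human PD1-gated cells in Q1 (mAb+, PD-L1-): human PD-1 CHO-S cells mixed with CFSE-labelled cyno PD-1 CHO-S cells, antibody binding read with APC anti-human IgG light chain detection.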
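Throughout, for % of human PD1-gated cells in Q2 (mAb+, PD-L1+): human PD-1 CHO-S cells mixed with CFSE-labelled cyno PD-1 CHO-S cells, antibody binding read with APC anti-human IgG light chain detection.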

T4 sequence (Q15116 25-170): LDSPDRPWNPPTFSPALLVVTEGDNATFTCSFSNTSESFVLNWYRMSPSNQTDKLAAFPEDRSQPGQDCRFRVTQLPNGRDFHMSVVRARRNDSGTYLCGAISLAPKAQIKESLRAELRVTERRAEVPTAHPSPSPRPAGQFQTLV

B1: the binding result in assay [1] was “binds”.

Take B2: the Kd (in general, the concentration at which binding is half-saturated) in [2] is 5 pM; in [3], 0.02 nM; in assay [4] it was 0.809 nM; in assay [5], 0.028 nM. In addition, the koff (as a rule, the rate constant with which the complex falls apart) in assay [2] stood at 4.5e-06 s⁻¹; in assay [3], 2.3e-05 s⁻¹; in assay [4] it was 3.04e-05 s⁻¹; in [5], 8.85e-06 s⁻¹. The association rate constant (kon) (as a rule, a measure of how fast the partners come together) in assay [2] was found to be 970000 M⁻¹ s⁻¹; in assay [3] it was 1.1e+06 M⁻¹ s⁻¹; in [4], 37100 M⁻¹ s⁻¹; in assay [5] it was 326000 M⁻¹ s⁻¹.

Regarding B3, in [6], the binding result is reported as “no binding”.

For B4, in assay [7], the “% of all cells in Q1 of panel PD-L1 binding (PD-L1+, CFSE- human PD1 cells)” value was 2.56%; the “% of all cells in Q4 of panel PD-L1 binding (PD-L1-, CFSE- human PD1 cells)” value is 45.3%; the “% of human PD1-gated cells in Q1 (mAb+, PD-L1-)” value stood at 59.6%; the “% of human PD1-gated cells in Q2 (mAb+, PD-L1+)” value was found to be 14.3%. In addition, in assay [7], the “% of human PD1-gated cells in Q3 (mAb-, PD-L1+)” value is 0.28% and the “% of human PD1-gated cells in Q4 (mAb-, PD-L1-)” value stood at 25.9%. Also, in [8], the “% of all cells in Q3 of panel PD-L1 binding (PD-L1-, CFSE+ cyno PD1 cells)” value was found to be 50%; the “% of cyno PD1-gated cells in Q1 (mAb+, PD-L1-)” value worked out at 51.8%; the “% of cyno PD1-gated cells in Q2 (mAb+, PD-L1+)” value was determined as 11.4%; the “% of cyno PD1-gated cells in Q3 (mAb-, PD-L1+)” value stood at 0.74%. In assay [8], the “% of cyno PD1-gated cells in Q4 (mAb-, PD-L1-)” value was 36.1%. Besides, in [9], the “% Blocking” value was determined as 90%. For the same molecule, the “% PD-L1 binding inhibition” value in assay [10] turned out to be 69%. Further, the “% Blocking” value in [11] came to 93%.
